{
  "source": "paper PMC3967969",
  "about": "(Molecular Biology of the Cell, 2014)",
  "biological_target": "T1, MEI-2, wild type (from MBP-TEV-MEI-2) (C. elegans, UniProt O44740 1-280)",
  "T1 sequence (looked up)": "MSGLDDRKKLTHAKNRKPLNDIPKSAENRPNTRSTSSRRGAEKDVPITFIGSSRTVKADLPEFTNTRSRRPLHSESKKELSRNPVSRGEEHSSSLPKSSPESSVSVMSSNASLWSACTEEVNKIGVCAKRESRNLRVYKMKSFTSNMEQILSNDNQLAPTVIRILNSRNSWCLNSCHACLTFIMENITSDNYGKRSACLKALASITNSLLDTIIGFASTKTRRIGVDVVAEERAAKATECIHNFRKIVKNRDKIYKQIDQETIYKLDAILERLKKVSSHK",
  "test": "pull-down",
  "data": [
    {"binder": "MEI-1 (short isoform), untagged, wild type (enzyme, C. elegans, UniProt P34808 1-472, looked up) MNGDVQSVIRGYLERAQVAKTMSDAGRWNEAGDLLRQLMTDVKSCKISASNRDEHDARNTFLRALEANLKLVQQNVRDEDDLHEAMTRQSGSPEPPADPDVWSKPSPPLPSSSKFGATKKGVGAAGPRPREISKSTSSMSTNPADVKPANPTQGILPQNSAGDSFDASAYDAYIVQAVRGTMATNTENTMSLDDIIGMHDVKQVLHEAVTLPLLVPEFFQGLRSPWKAMVLAGPPGTGKTLIARAIASESSSTFFTVSSTDLSSKWRGDSEKIVRLLFELARFYAPSIIFIDEIDTLGGQRGNSGEHEASRRVKSEFLVQMDGSQNKFDSRRVFVLAATNIPWELDEALRRRFEKRIFIPLPDIDARKKLIEKSMEGTPKSDEINYDDLAARTEGFSGADVVSLCRTAAINVLRRYDTKSLRGGELTAAMESLKAELVRNIDFEAALQAVSPSAGPDTMLKCKEWCDSFGAM", "values": [
      {"measurement": "stoichiometry N", "result": "1 MEI-1:MEI-2"}
    ]}
  ]
}
